Assay results: patent publication US6602687B1, “DNA encoding human ciliary neurotrophic factor and method for producing the protein encoded thereby” (Regeneron Pharmaceuticals, Inc., priority 1989, dated 2003)

Key:
[1] = tested on: GABAergic neurons (hippocampal cultures); assay: Effect of other neurotrophic factors on GABAergic hippocampal neurons in culture; type: cell-based, rat
Protocol: Hippocampi were dissected from E18-19 rat embryos of Sprague-Dawley rats, and collected in F10 medium. The tissues were minced, rinsed twice with F10 medium (Gibco) and trypsinized with 0.25% trypsin (Gibco) for 20 minutes at 37° C. Trypsin was inactivated by the addition of a serum-containing medium composed of minimal essential medium (MEM) supplemented with fetal calf serum (FCS, 10%), glutamine (2 mM), penicillin (25 U/ml) and streptomycin (25 ug/ml). Dissociated cells obtained by gentle trituration were collected and centrifuged at low speed (500 rpm) for 30 seconds. The centrifugation was repeated twice, and the cell pellets were then resuspended in serum-containing medium. The cells were then plated onto 6 mm wells or 35 mm dishes that were coated with polyornithine (10 ug/ml) and laminin (10 ug/ml). In most of the experiments, the cells were plated at a low density of approximately 71,000 cells/cm^2. Five to six hours following the plating of cells, medium was changed to a serum-free medium containing 1% N3 and penicillin-streptomycin (25 units/ml and 25 ug/ml, respectively), at which time CNTF was added. Medium was changed every three to four days, with re-addition of the factor. […]

[2] = tested on: chick embryonic spinal motorneurons; assay: Survival of chick embryonic spinal motorneurons in culture; type: cell-based; parameters: key to Survival: −: not significantly different from control (survival: 8.3 ± 3.8%, mean ± SD, n = 18); ±: about 15-20% (statistically significant from each blank control, p < 0.01); + +: about 35-55%; + ++: about 55-75%
Protocol: Motorneuron columns were dissected under a stereomicroscope from the lumbar part of the spinal cord of chick embryos on the 6th day of embryonic development and stored in cold calcium and magnesium-free Hanks balanced salt solution supplemented with glucose (4 g/l) (HBSS). The tissues were washed with HBSS and treated with 0.03% trypsin in HBSS at 37° C. for 20 min with gentle shaking, rinsed with cold HBSS and triturated mildly in 3 steps of 8-passage agitation in 1 ml of cold 0.1% soybean trypsin inhibitor (Sigma) in HBSS through a fire-polished siliconized Pasteur pipette. Each supernatant cell suspension was filtered through 50 μm-Nylon mesh, pooled and layered onto 4 ml of cold 6.8% metrizamide (Fluka) in HBSS-25 mM HEPES (pH7.4) in a 12 ml-siliconized conical glass tube. The tube was centrifuged at 400 g for 15 min at 4° C. and the intermediate layer (0.5 ml) was collected into another siliconized tube containing 6.5 ml of cold culture medium (a mixture of glucose (4 g/l)-supplemented Leibovitz's L-15 medium (Gibco), 0.15 M sodium bicarbonate, heat-inactivated and filtered horse serum and penicillin G (10^5 units/ml) at the ratio of 75:15:10:0.1, freshly prepared and buffered with 5% CO2.) After centrifugation at 100×g for 7 min at 4° C., the supernatant was removed and the cells were gently resuspended in culture medium and plated in Greiner 4-well culture dishes (well diameter, 10 mm; C. A. Greiner und Sohne GmbH, Nurtingen, West Germany) at 1000-2000 cells/well. The dishes had been precoated with poly-DL-ornithine (Sigma, 0.5 mg in 0.15 M sodium borate buffer (pH 8.3) overnight at 4° C., rinsed twice with phosphate-buffered saline (PBS) and subsequently coated with laminin (Gibco; 10 μg/ml in the serum-depleted culture medium) and placed in a 5% CO2-incubator until cell plating (5-6 hrs). Cells were incubated at 37° C. in a humidified 5% CO2- and 95% air-incubator. Samples were added one hr after plating and the culture medium changed after 24 hrs and 72 hrs. The initial cell numbers were counted 3 hrs after plating.
In some experiments motor neurons were retrogradely labeled with a fluorescent dye in vivo before cell preparation (U. Dohrman et al., 1986, Dev. Biol. 118:209-221) to identify the motor neuron cell population. A small hole was made in the shell of eggs which had been incubated for 5 days. Small pieces of rhodamine isothiocyanate crystals (Sigma) were inserted at two or three places into each hind limb thigh and the egg hole was sealed with a cellophane tape. The eggs were incubated for another 24 hrs. Some of the operated embryos were then processed for frozen sections after formaldehyde fixation. […] The other embryos were used for cell preparation using the method described above (18.1.1). After 5 hrs in culture cells were rinsed with warm HBSS, fixed with 4% formaldehyde in PBS at room temperature for 20 min, rinsed with PBS and then mounted in glycerol-PBS (1:1) with glass coverslips. Of the total cells approximately 83% were labeled and identified as motorneurons (FIG. 42.) Most of these labeled motorneurons were large cells and the rest were intermediate-size cells. No small cells were labeled. On the other hand, in experiments in which cells were not labeled with a fluorescent dye about 70% of the total cells were large phase-bright cells with round cell somas, about 20% were intermediate-size neurons (most of them may be motorneurons) and about 10% were small immature neurons (they have neuron-like processes with growth cones but have phase-dark semi-flat cell somas). Non-neuronal cells were either not present or accounted for less than 2%. Taken together, one may conclude that at least 83% of the cells are motorneurons while the remainder consists of non-labeled motorneurons, a small number of unidentified intermediate-size neurons and about 10% immature small neurons. […]

[3] = tested on: Mediodorsal (MD) spinal cord neurons; assay: E14 rat mediodorsal spinal cord neuron cultures in defined medium; type: cell-based; conditions: CNTF 2 μl/ml (recombinant rat, E. coli extract), NGF 50 ng/ml at plating; day 7; Bradford
Source text: (§1) Sprague-Dawley rats (HSD) were used for all experiments. Pregnant rats were sacrificed by carbon dioxide asphyxiation, and the embryos were rapidly removed and placed in ice-cold Puck's saline G for further dissection.
(§2) Spinal cords were removed aseptically from rat embryos on the 14th day of gestation. The spinal cord was severed caudal to the bulb, freed of sensory ganglia and meninges. The cord was then subdivided into ventral and mediodorsal segments for separate cultures. The cord tissues were minced into small pieces and mechanically dissociated by trituration through a Pasteur pipet in defined culture medium consisting of 50% basal medium Eagle (BME; Gibco) and 50% Ham's nutrient mixture F12 (Gibco) supplemented with glucose (33 mM), glutamine (2 mM, NaHCO3 (15 mM), HEPES (10 mM), insulin (25 μg/ml), transferrin (100 μg/ml) putrescine (60 μM), progesterone (20 nM), Na selenite (30 nM), penicillin G (0.5 μg/ml), streptomycin (0.5 μg/ml), and bovine serum albumin (2.5 μg/ml). Trituration was repeated twice and the supernatants were pooled and filtered through a nylon (Nitex, Tetko) filter (40 μm). Total cell number yielded was determined by hemocytometer counting in the presence of trypan blue. Dissociated ventral cells were then plated at a density of 0.5 million cells/35 mm dish coated with poly-D-lysine (10 μg/ml). Dissociated mediodorsal cells were plated at a density of 1.5 million/35 mm dish coated with poly-D-lysine (10 μg/ml), poly-L-ornithine (10 μg/ml), or poly-L-ornithine with laminin (5 μg/ml). Treatments to these cultures were added at the time of plating. Cultures were maintained at 37° C. in a 95% air/5% CO2 atmosphere at nearly 100% relative humidity. Culture medium was changed every three to four days.

[4] = tested on: Ventral spinal cord neurons; assay: E14 rat ventral spinal cord neuron cultures in defined medium; type: cell-based; conditions: CNTF 2 μl/ml, NGF 50 ng/ml at plating; day 7
Source text: as §1, §2

[5] = tested on: Ventral spinal cord neurons; assay: Neurofilament (NF) assay in ventral spinal cord neuron cultures; type: cell-based, rat; conditions: CNTF 10 ng/ml, NGF 50 ng/ml at plating; day 7
Protocol: (§3) Sprague-Dawley rats (HSD or Zivic-Miller) were used for all experiments. Pregnant rats (E14) were sacrificed as described in 10.1.1.
Spinal cords were removed aseptically from rat embryos as described in 10.1.2. The cord tissues were minced into small pieces and incubated in 0.1% trypsin (GIBCO) and 0.01% deoxyribonuclease type 1 (Sigma) at 37° C. for 20 minutes. Trypsin solution was then removed, rinsed and replaced with medium consisting of 45% Eagle's minimum essential medium (MEM), 45% Ham's nutrient mixture F12 (F12), 5% fetal calf serum (GIBCO), 5% horse serum (GIBCO) glutamine (2 mM), penicillin G (0.5 U/ml), and streptomycin (0.5 ug/ml). […] Total cell number yielded was determined by hemocytometer counting in the presence of trypan blue. […]
After fixation of the cells in 4% paraformaldehyde at 4° C. for 2 hours, the cultures were then permeabilized and blocked according to the procedures described in Doherty et al. (1984, J. Neurochem. 42:1116-1122). Neurofilament protein was detected using a monoclonal antibody RT97 (Wood and Anderton, 1981, Biosci. Rep. 1:263-268) at a 1:1000 dilution. The reaction product was visualized using O-phenylenediamine (OPD) as a substrate and optical density was measured at 490 nm.

[6] = tested on: AchE-containing ventral spinal cord neurons; assay: Count of AchE-containing neurons in ventral spinal cord cultures; type: cell-based, rat; conditions: CNTF 10 ng/ml at plating; 7 days
Protocol: as §3
Spinal cords were removed aseptically from rat embryos as described in 10.1.2. The cord tissues were minced into small pieces and incubated in 0.1% trypsin (GIBCO) and 0.01% deoxyribonuclease type 1 (Sigma) at 37° C. for 20 minutes. Trypsin solution was then removed, rinsed and replaced with medium consisting of 45% Eagle's minimum essential medium (MEM), 45% Ham's nutrient mixture F12 (F12), 5% fetal calf serum (GIBCO), 5% horse serum (GIBCO) glutamine (2 mM), penicillin G (0.5 U/ml), and streptomycin (0.5 ug/ml). This was then mechanically dissociated twice by gentle trituration through a Pasteur pipet in the same medium, and the supernatants were pooled and filtered through a nylon filter (Nitex, Tetko; 40 um). Total cell number yielded was determined by hemocytometer counting in the presence of trypan blue. Dissociated ventral cells were then plated at a density of approximately 50,000 cells/cm^2 on dishes coated with poly-L-ornithine (10 ug/ml) and laminin (5 ug/ml). Treatments were given on the day of plating, except for delayed addition experiments in which treatments were given on days 2 or 6. Cultures were maintained at 37° C. in 95% air/5% CO2 atmosphere at nearly 100% relative humidity. Culture medium was changed every 3 to 4 days. […]

[7] = tested on: Ventral spinal cord neurons; assay: Choline acetyltransferase (CAT) activity in ventral spinal cord cultures; type: cell-based, rat; conditions: CNTF 10 ng/ml, NGF 50 ng/ml, FGF 50 ng/ml at plating; after 7 days in culture
Protocol: as §3
Spinal cords were removed aseptically from rat embryos as described in 10.1.2. The cord tissues were minced into small pieces and incubated in 0.1% trypsin (GIBCO) and 0.01% deoxyribonuclease type 1 (Sigma) at 37° C. for 20 minutes. Trypsin solution was then removed, rinsed and replaced with medium consisting of 45% Eagle's minimum essential medium (MEM), 45% Ham's nutrient mixture F12 (F12), 5% fetal calf serum (GIBCO), 5% horse serum (GIBCO) glutamine (2 mM), penicillin G (0.5 U/ml), and streptomycin (0.5 ug/ml). This was then mechanically dissociated twice by gentle trituration through a Pasteur pipet in the same medium, and the supernatants were pooled and filtered through a nylon filter (Nitex, Tetko; 40 um). Total cell number yielded was determined by hemocytometer counting in the presence of trypan blue. Dissociated ventral cells were then plated at a density of approximately 50,000 cells/cm^2 on dishes coated with poly-L-ornithine (10 ug/ml) and laminin (5 ug/ml). Treatments were given on the day of plating, except for delayed addition experiments in which treatments were given on days 2 or 6. Cultures were maintained at 37° C. in 95% air/5% CO2 atmosphere at nearly 100% relative humidity. Culture medium was changed every 3 to 4 days. A mitotic inhibitor, cytosine arabinoside (Ara C; 0.5 uM), was added on day 2 to reduce the number of nonneuronal cells. On day 7, cells were harvested for measurements of choline acetyltransferase (CAT; Fonnum, 1975 J. Neurochem. 24:407-409) and protein (Bradford, 1976, Annal. Biochem. 72:248-254) levels or fixed in 4% paraformaldehyde for NF assay (Doherty et al., 1984, J. Neurochem. 42:1116-1122) and immunocytochemistry. Some cultures were grown in defined medium consisting of 50% F12 and 50% MEM, glutamine (2 mM), insulin (5 ug/ml), transferrin (100 ug/ml), progesterone (20 nM), putrescine (10 uM), and sodium selenite (30 nM) (Bottenstein and Sato, 1979, PNAS 76:514-517). In these cultures sera-containing medium was replaced with defined medium on day 1.
Cultures were harvested by lysing the cells in a 20 mM Tris-HCl (pH 8.6) solution containing 0.1% Triton X-100. Two microliters of the cell lysate was removed and assayed for CAT activity according to the micro-Fonnum procedure (Fonnum, 1975, J. Neurochem. 24:407-409). The final substrate composition consisted of 0.2 mM [1-^14C] Acetyl-CoA (NEN, 54.4 mCi/mmol), 300 mM NaCl, 8 mM choline bromide, 20 mM EDTA, and 0.1 mM neostigmine in 50 mM NaH2PO4 (pH 7.4) buffer. At these enzyme and substrate concentrations, the enzymatic reaction was linear for 90-120 minutes. The specificity of the induction for CAT was tested by the addition of a specific inhibitor of CAT activity, N-hydroxyethyl-4-(1-napthylvinyl) pyridium (HNP), during the assay (White and Cavallito, 1970, J. Neurochem. 17:1579-1589).

B1: BDNF: brain derived neurotrophic factor (porcine in Table VI) (protein, UniProt P14082 134-252, looked up)
Neurotrophic factor BDNF: HSDPARRGELSVCDSISEWVTAADKKTAVDMSGGTVTVLEKVPVSKGQLKQYFYETKCNPMGYTKEGCRGIDKRHWNSQCRTTQSYVRALTMDSKKRIGWRFIRIDTSCVCTLTIKRGR
modifications: Neurotrophic factor BDNF
B1 was tested. Which “effect on / survival of GABAergic neurons” value [1] did it give?
The value was “does not seem to promote the survival”.

What about the Survival ([2]; after 3 days in culture, one concentration per molecule, Table VI, CNTF rat, rec.) of the same molecule?
Its Survival is “−”.

And the “survival effect on motoneurons” value ([2]; supramaximal concentrations, NT-3 produced by transfected Cos-cells)?
The value was “no discernable effect”.

B2: NGF: mouse nerve growth factor (protein, UniProt P01139 122-241, looked up)
Beta-nerve growth factor: SSTHPVFHMGEFSVCDSVSVWVGDKTTATDIKGKEVTVLAEVNINNSVFRQYFFETKCRASNPVESGCRGIDSKHWNSYCTTTHTFVKALTTDEKQAAWRFIRIDTACVCVLSRKATRRG
Which μg protein dish [3] does the source give for B2 here?
Its μg protein dish is 20 μg protein dish.

What about the “CAT Activity” value [4] of the same molecule?
The value was 621.25 ± 33.59 CPM/dish.

And the Protein [4]?
The Protein was 38 μg/dish.

What about the “increase in NF content versus untreated controls” value [5] of the same molecule?
Its value is “did not produced any significant effect”.

What about the “increase in AchE-positive neurons versus untreated controls” value [6] of the same molecule?
Its value is “small effect”.

What about the “increase in CAT activity” value [7] of the same molecule?
The value was “no effect”.

And the “effect on / survival of GABAergic neurons” value [1]?
Its value is “not able to detect any effect”.
